# Reference: publication PMC9884178 (Nature, 2022)
# T1: WaaL from Cupriavidus metallidurans (CmWaaL) in MSP1E3D1 nanodiscs, as used for ELISA (Cupriavidus metallidurans CH34)
# T1 chain: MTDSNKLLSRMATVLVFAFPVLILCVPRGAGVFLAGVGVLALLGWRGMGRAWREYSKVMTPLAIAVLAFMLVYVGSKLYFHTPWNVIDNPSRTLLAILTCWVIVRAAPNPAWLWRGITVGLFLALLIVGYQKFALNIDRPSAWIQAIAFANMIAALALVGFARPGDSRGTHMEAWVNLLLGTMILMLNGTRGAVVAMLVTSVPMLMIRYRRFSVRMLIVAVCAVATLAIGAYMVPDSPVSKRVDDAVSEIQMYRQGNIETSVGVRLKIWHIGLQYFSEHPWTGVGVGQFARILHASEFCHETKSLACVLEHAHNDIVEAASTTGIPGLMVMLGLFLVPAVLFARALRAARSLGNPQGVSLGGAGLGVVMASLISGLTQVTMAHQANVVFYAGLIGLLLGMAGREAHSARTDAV
# Biological target: T1, WaaL from Cupriavidus metallidurans …
# Assay: ELISA
binder,measurement,value
"WaB10 Fab (synthetic antigen binder against CmWaaL) (Fab, V domains shown) VH: EVQLVESGGGLVQPGGSLRLSCAASGFNVYSSSIHWVRQAPGKGLEWVAYISSYYGSTYYADSVKGRFTISADTSKNTAYLQMNSLRAEDTAVYYCARIMFKWVSPNMAFDYWGQGTLVTVSS VL: DIQMTQSPSSLSASVGDRVTITCRASQSVSSAVAWYQQKPGKAPKLLIYSASSLYSGVPSRFSGSRSGTDFTLTISSLQPEDFATYYCQQSYYSLVTFGQGTKVEIK",EC50,1.87 nM
